In US11944665B2, “Methods and compositions for modulating lymphatic vessels in the central nervous system” (University of Virginia Patent Foundation, priority 2016, dated 2024):
Entries after “also recorded” stand apart in the source; their conditions may differ.

B1: VEGF-C156S: recombinant human VEGF-C156S, applied in a gel matrix on a thinned skull (protein, UniProt P49767 112-227, looked up, variant C156S)
Vascular endothelial growth …: AHYNTEILKSIDNEWRKTQCMPREVCIDVGKEFGVATNTFFKPPSVSVYRCGGCCNSEGLQCMNTSTSYLSKTLFEITVPLSQGPKPVTISFANHTSCRCMSKLDVYRQVHSIIRR
B2: VEGF-c: VEGFR3 agonist polypeptide, lymphangiogenic growth factor, SEQ ID NO: 1; recombinant protein injected into CSF (FIG. 2e used rhVEGF-c Cys156Ser) (protein, listed as Homo sapiens)
chain: MHLLGFFSVACSLLAAALLPGPREAPAAAAAFESGLDLSDAEPDAGEATAYASKDLEEQLRSVSSVDELMTVLYPEYWKMYKCQLRKGGWQHNREQANLNSRTEETIKFAAAHYNTEILKSIDNEWRKTQCMPREVCIDVGKEFGVATNTFFKPPCVSVYRCGGCCNSEGLQCMNTSTSYLSKTLFEITVPLSQGPKPVTISFANHTSCRCMSKLDVYRQVHSIIRRSLPATLPQCQAANKTCPTNYMWNNHICRCLAQEDFMFSSDAGDDSTDGFHDICGPNKELDEETCQCVCRAGLRPASCGPHKELDRNSCQCVCKNKLFPSQCGANREFDENTCQCVCKRTCPRNQPLNPGKCACECTESPQKCLLKGKKFHHQTCSCYRRPCTNRQKACEPGFSYSEEVCRCVPSYWKRPQMS

What was measured:
[1] = system: meningeal lymphatic vessels; experiment: Transcranial gel+VEGF-C156S in old mice (Example 4); type: in vivo, C57BL/6 mice; settings: one month transcranial treatment, 2 h after OVA-A647 ICM
Procedure: […] of a gel matrix alone (vehicle) or containing 200 ng of recombinant human VEGF-C156S was applied every two weeks on top of a thinned skull of old C57BL/6 mice. One month after the initial treatment, OVA-A647 was injected ICM and mice were transcardially perfused with saline 2 h post injection. […] OVA-A647 alone is shown in the inset in the upper right corner of each of FIGS. 27A and 27B, and LYVE-1 alone is shown in the inset in the lower right corner of each of FIGS. 27A and 27B.

[2] = system: meningeal lymphatic vessels; experiment: i.c.v. (cisterna magna) injection of rhVEGF-c, meningeal lymphatic vessel diameter (FIG. 2D-E); type: in vivo, mice; settings: single injection of recombinant protein into the CSF (i.c.v.)
From the text: FIGS. 2A-H are a series of microscope images and graphs showing Molecular and structural characterization of meningeal lymphatic vessels. FIG. 2A is a series of representative images of Prox1 expression in the nuclei of Lyve-1^+ vessels in the dural sinuses of Prox1^tdT mice (scale bars, 10p m)(in order of left-to-right, the four panels show Lyve-1, Prox1-tdTOMATO, DAPI, and overlay). FIG. 2B is a series of representative images of podoplanin and Lyve-1 labelling on dural sinuses (scale bar, 40 μm) (in order of left-to-right, the three panels show Lyve-1. Podoplanin, and overlay). FIG. 2C is a series of representative images of VEGFR3 and Lyve-1 staining on dural sinuses (scale bar, 20 μm)(in order of left-to-right, the three panels show VEGFR3. Lyve-1, and overlay). For FIGS. 2D and 2E Adult mice were injected i.c.v. (cisterna magna) with 4 μg of rhVEGF-c (Cys156Ser) or with PBS. Meninges were harvested 7 and 14 days after the injection. […] FIG. 2E is a graph showing quantification of the meningeal lymphatic vessel diameter (mean±s.e.m.; n=4 mice each group, *P<0.05, two-way ANOVA with Bonferroni post hoc test). FIGS. 2F and 2G are a series of representative images of smooth muscle cells (alpha-smooth muscle actin, α-SMA) and Lyve-1 labelling on dural sinuses (scale bars, 50 μm (g) or 20 μm(g)). […]

meningeal lymphatic = experiment: Lymphatic drainage of fluorescent microbeads into deep cervical lymph nodes (FIG. 15); type: in vivo, mice; settings: VEGF-c injected into CSF, 5 days after injection, vs PBS
Procedure: FIGS. 15A-E are a series of diagrams, microscope images, and graphs showing modulation of the meningeal lymphatic affects drainage into the cervical lymph nodes. […] Fluorescent microbeads (0.5 μm in diameter-5 μl) were injected in the lateral ventricle of mice at a rate of 0.5 μl/min. 30 min later, the deep cervical lymph nodes were harvested, sliced and immunostained for the presence of fluorescent beads. FIG. 15B is a pair of representative sections of deep cervical lymph nodes from sham operated (left) and ligated (right) mice immunostained for lymphatic vasculature (Lyve-1), fluorescent microbeads and Lyve-1. Note the accumulation of microbeads in the subcapsular space of the lymph nodes in the sham operated mice (left). […] N=3-4 mice per group, Student-t-test. d. Quantification of the coverage of dCLN section by fluorescent beads in PBS and Visudyne injected mice (24 h after ablation). N=3-5 mice per group, *p<0.05, Student-t-test. e. Quantification of the coverage of dCLN section by fluorescent beads in PBS and VEGF-c injected mice (5 days after VEGF-c injection). N=4 mice per group.

| Molecule | drainage of OVA-A647 into the dcLNs [1] | OVA-A647 influx from the CSF into the parenchyma [1] | diameter of meningeal lymphatic vessels [2] | diameter of meningeal lymphatic vessels ([2]; listed as recombinant VEGF-c) | lymphatic drainage (efficacy) after VEGF-c (meningeal lymphatic) | lymphatic drainage (efficacy) after VEGF-c (meningeal lymphatic; listed as recombinant VEGF-c) |
| --- | --- | --- | --- | --- | --- | --- |
| B1 | increased |  |  |  |  |  |
| B2 |  | improved CSF influx into brain | increase in diameter; also recorded: increase the diameters of meningeal lymphatic vessels | sufficient to increase diameter | improves the drainage | increase drainage efficacy |
